From article PMC11367152, “An aptamer‐guided fluorescence polarisation platform for extracellular vesicle liquid biopsy”

Target: HER2 on immobilised SKBR3 EVs (UniProt P04626 23-1255)
Assay: fluorescence polarisation; SKBR3 EVs captured by anti-CD9/CD81; delta FP below LOD; FITC aptamer 5 nM, 1 h, room temperature, in antibody-captured EV wells; aptamers folded in PBS + 1.0 mM MgCl2 (CD63-BP, control) or PBS + 5.0 mM MgCl2 (HER2-HApt); pH not stated
Conditions: protein: native; tags: none; label: 5'-FITC; folded single strand

GCGCGAATGGGCGCGC (structured_DNA, 3' inverted dT) [FITC-negative control aptamer]
binding result: no binding
